# Test results: patent US20040132121A1, “Method of identifying antibacterial compounds” (priority 2000, published 2004)
# “And” between values parts separate entries of the source, which are not always exact repeats. Identical values can stand only once.
# Biological target: Escherichia coli β subunit of DNA Polymerase III (β protein) (Escherichia coli), P0A988
# Sequence (P0A988 whole entry): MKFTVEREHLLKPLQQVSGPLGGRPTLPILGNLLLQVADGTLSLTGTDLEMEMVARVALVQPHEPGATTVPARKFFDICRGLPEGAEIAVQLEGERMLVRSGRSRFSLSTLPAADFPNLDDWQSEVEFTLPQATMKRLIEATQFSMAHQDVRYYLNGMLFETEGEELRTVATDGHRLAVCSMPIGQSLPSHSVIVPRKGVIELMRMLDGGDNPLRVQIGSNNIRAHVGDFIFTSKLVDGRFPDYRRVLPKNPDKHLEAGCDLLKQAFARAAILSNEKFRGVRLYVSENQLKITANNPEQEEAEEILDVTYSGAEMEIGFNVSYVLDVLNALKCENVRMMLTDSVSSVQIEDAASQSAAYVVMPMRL
binder,measurement,value
"EAQLDLFDS (modifications not checked) [peptide 112d … (UmuC1, native flanking sequences)]",IC50,1000 nM and 3600 nM
